We go through ten molecules from US20170029841A1, “METHODS AND COMPOSITIONS FOR SELECTIVE REGULATION OF PROTEIN EXPRESSION” (priority 2015, published 2017).

The series relates to transgenic maize R0 plants (double copy events). The series is described as follows: R0 plant greenhouse glyphosate spray: vegetative tolerance and induced male sterility. The format is in vivo. The conditions noted are these: for % Vegetative Tolerant / % Vegetative Tolerance: glyphosate 0.75 lb ae/acre at V5 then V8; for % Vegetative Tolerant: <=10% injury 7 days after V5 spray. As to the method: Transformation vectors containing the recombinant DNA constructs were used with an Agrobacterium-based transformation method and maize immature embryos and techniques known in the art. Leaf samples of R0 plants were collected and molecular analysis was conducted to select transgenic plants containing a single copy (one insertion) or a double copy (two independent insertions) of the recombinant DNA construct and no presence of vector backbone. Single copy events were not sprayed with glyphosate and were selfed and advanced for R1 seed collection, while double copy events were used for R0 glyphosate spray to assess vegetative tolerance and induced male sterility. Transgenic plants that were not sprayed with glyphosate had normal anthesis, normal pollen shedding, and normal pollen development as determined by Alexandar staining and microscopic observation.
Double copy R0 events were used in testing to approximate a single copy homozygous event. Plants were sprayed with glyphosate at two different growth stages to determine if the presence of the mts-siRNA target element in the recombinant DNA construct provided vegetative glyphosate tolerance and glyphosate-induced tassel sterility. The plants were sprayed in a greenhouse with 1× glyphosate (0.75 lb ae/acre) applied at the V5 stage followed by 1× glyphosate (0.75 lb ae/acre) applied at the V8 stage. Seven days after the V5 stage glyphosate application, plants were scored for vegetative injury with scores of ≦10% injury considered as showing vegetative glyphosate tolerance (% Vegetative Tolerant). Male sterility was measured in two ways. […] Anthers were then collected and dissected to microscopically observe pollen development. Anthers for each event were tested for no viable pollen grains produced as detected by Alexandar staining under microscopic observation and scored as not producing any viable pollen (% No Pollen). In plants not sprayed with glyphosate, tassel development, anther extrusion, and pollen development were normal.
The mts-siRNA target elements were tested in multiple transformation vector configurations. Each transformation vector was used to produce multiple R0 plants with each R0 plant representing a unique transgenic event made using the same transformation vector. Data for three different transformation vector configurations are provided as Tables 11 and 12.

The mark [1] stands for this setting: vector configuration A, no anther extrusion up to S90+12 after V8 glyphosate.
Where [2] appears, read: vector configuration A, no viable pollen by Alexandar staining.

B1: SEQ ID NO: 13: recombinant mts-siRNA target element sequence (nucleic acid)
DNA: ACGTGATAACTTCTATGCTGGCTGTGATTGCTAGTTGAAGAAAAGAATAGATATGGTGACATCAAGTTTCCACTGCGTGACG
modifications: chemistry not fully specified; the letters are possibly those of the target site
For B1, the “% Vegetative Tolerant” value (vector configuration A, listed as 13) was determined as 100%. Also, the “% Completely Male-sterile” value runs as follows: under setting [1], “none”; (vector configuration A, no anther extrusion up to S90+12 after V8 glyphosate, listed as 13) 0%. Under setting [2], the “% No Pollen” value came out at 0%.

B2: SEQ ID NO: 14: recombinant mts-siRNA target element sequence (nucleic acid)
DNA: CCCAACGTGCATATCGCCATCCTCTGCTACGAGGGAATGTCATTGGTCGATGAGATGAGGGTGAATCGGATGTTGAGGTGGCACGATAGTTAAGGCGCAAGGGTAT
modifications: chemistry not fully specified; the letters are possibly those of the target site
With B2, the “% Vegetative Tolerant” value (vector configuration A, listed as 14) is 90%. Moreover, the “% Completely Male-sterile” value under setting [1] is “none” and the “% Completely Male-sterile” value (vector configuration A, no anther extrusion up to S90+12 after V8 glyphosate, listed as 14) came to 0%. Further, the “% No Pollen” value under setting [2] is given as 0%.

B3: SEQ ID NO: 2: mts-siRNA target element, single nucleotide change (T69A) relative to SEQ ID NO: 1 (nucleic acid)
DNA: AGACGACGACCGTGCATGGTGATGAATCACAGACGACGAACACGCATGTCGCATCGCCGTCCTCTTTGAATCACACAGCATCACCTTCTTCGCTCTACTACTCCCCCGAGCAATCACCGACCAATAACACCAACCATCAACCTCCCCCGTCGCCGCCGCCTTCACCGTCCTCCCCTCACACCATAGAACTGCAAATGTCCG
As to B3, the “tassel male sterility and pollen by Alexandar stain” value (double copy R0 events with SEQ ID NO: 2, glyphosate 0.75 lb ae/acre at V5 then V8) is “very few aborted pollen grains or no pollen grains were detected”. The “% Vegetative Tolerant” value (vector configuration A, listed as 2) was 100%. Also, the “% Completely Male-sterile” value (vector configuration A, no anther extrusion up to S90+12 after V8 glyphosate, listed as 2) was found to be 82%. In addition, the “% No Pollen” value under setting [2] is 82%.

B4: SEQ ID NO: 11: recombinant mts-siRNA target element sequence (nucleic acid)
DNA: AGACGACGACCGTGCATGGTGATGAATCACAGACGACGAACACGCATGTCGCATCGCCGTCCTCTCACACCATAGAACTGCAAATGTCCGACAACAAGCACCTTCTTGCCTTGCAGTATTGGTGGTGACGACATCCTTGGTGTGCATGCACTGGTGAGTCACTGT
Turning to B4, under “vector configuration B”, the “% Completely Male-sterile” value is 50%, the “% No Pollen” value stood at 0% and the “% Vegetative Tolerance” value came out at 100%. For the same molecule, for the setting “vector configuration C”, the “% Completely Male-sterile” value was determined as 80%, the “% No Pollen” value is 0% and the “% Vegetative Tolerance” value turned out to be 55%.

B5: SEQ ID NO: 10: recombinant mts-siRNA target element sequence (nucleic acid)
DNA: AGACGACGACCGTGCATGGTGATGAATCACAGACGACGAACACGCATGTCGCATCGCCGTCCTCTCACACCATAGAACTGCAAATGTCCG
modifications: expressed or natural sequence; target site or template, no part of the molecule
As to B5, where the note is “vector configuration B”, the “% Completely Male-sterile” value was 55%, the “% No Pollen” value worked out at 22% and the “% Vegetative Tolerance” value is on record as 90%. For the setting “vector configuration C”, the “% Completely Male-sterile” value turned out to be 100%, the “% No Pollen” value came to 0% and the “% Vegetative Tolerance” value is on record as 83%.

B6: SEQ ID NO: 9: reverse complement of mts-siRNA target element, 99% identity to positions 191 to 490 of cDNA SEQ ID NO: 22 (nucleic acid)
DNA: GGACAACAAGCACCTTCTTGCCTTGCAAGGCCTCCCTTCCCTATGGTAGCCACTTGAGTGGATGACTTCACCTTAAAGCTATTGATTCCCTAAGTGCCAGACATAATAGGCTATACATTCTCTCTGGTGGCAACAATGAGCCATTTTGGTTGGTGTGGTAGTCTATTATTGAGTTTTTTTTGGCACCGTACTCCCATGGAGAGTAGAAGACAAACTCTTCACCGTTGTAGTCGTTGATGGTATTGGTGGTGACGACATCCTTGGTGTGCATGCACTGGTGAGTCACTGTTGTACTCGGCG
modifications: Zea mays
As to B6, the “% Vegetative Tolerant” value (vector configuration A, listed as 9) amounted to 100%. Also, the “% Completely Male-sterile” value (vector configuration A, no anther extrusion up to S90+12 after V8 glyphosate, listed as 9) came to 40%. Under setting [2], the “% No Pollen” value turned out to be 0%.

B7: SEQ ID NO: 16: recombinant mts-siRNA target element sequence (nucleic acid)
DNA: GACAACAAGCACCTTCTTGCCTTGCAGTATTGGTGGTGACGACATCCTTGGTGTGCATGCACTGGTGAGTCACTGTTGTACGTGATAACTTCTATGCTGGCTGTGATTGCTAGTTGAAGAAAAGAATAGATATGGTGACATCAAGTTTCCACTGCGTGACGCCAACGTGCATATCGCCATCCTCTGCTACGAGGGAATGTCATTGGTCGATGAGATGAGGGTGAATCGGATGTTGAGGTGGCACGATAGTTAAGGCGCAAGGGT
As to B7, the “% Vegetative Tolerant” value (vector configuration A) came out at 80%. Further, under setting [1], the “% Completely Male-sterile” value was 50%. Moreover, the “% No Pollen” value under setting [2] came out at 0%.

B8: SEQ ID NO: 15: recombinant mts-siRNA target element sequence (nucleic acid)
DNA: TCGTCCAAACGTGACCGTGTGGCTAGAAGCAGAGGATGGCGATATGCACGTTATGCTTTCCTAGACTCTCACTGTAGTGG
modifications: chemistry not fully specified; the letters are possibly those of the target site
For B8, the “% Vegetative Tolerant” value (vector configuration A, listed as 15) was 90%. Besides, the “% Completely Male-sterile” value by setting is: under setting [1], “none”; (vector configuration A, no anther extrusion up to S90+12 after V8 glyphosate, listed as 15) 0%. Besides, the “% No Pollen” value under setting [2] turned out to be 0%.

B9: SEQ ID NO: 12: recombinant mts-siRNA target element sequence (nucleic acid)
DNA: AGACGACGACCGTGCATGGTGATGAATCACAGACGACGAACACGCATGTCGCATCGCCGTCCTCTCACACCATAGAACTGCAAATGTCCGCTCTTCACCGTTGTAGTCGTTGATGGTATTGGTGGTGACGACATCCTTGGTGTGCATGCACTGGTGAGTCACTGTTGTAC
With B9, where the note is “vector configuration B”, the “% Completely Male-sterile” value came out at 50%, the “% No Pollen” value is on record as 20% and the “% Vegetative Tolerance” value stood at 100%. Moreover, where the note is “vector configuration C”, the “% Completely Male-sterile” value came out at 23%, the “% No Pollen” value is 0% and the “% Vegetative Tolerance” value came to 87%.

B10: SEQ ID NO: 3: mts-siRNA target element, nucleotide positions 239 to 433 of cDNA SEQ ID NO: 18 (nucleic acid)
DNA: TCTAGCCACACGGTCACGTTTGGACGACCAATAATAGGCTTGCAACCCTTCAAATTGTGTCCATCAGCTTCCCAACGTGCATATCGCCATCCTCTGCTTCGTGTCCCATGTCACCACCCCCACTCTTCCTCTTTACATGCAATGCAAATAAAGCAGATCCAACGTGGATGAGGGTGAATCGGATGTTGAGGTGGG
modifications: Zea mays
On to B10, for which the “% Vegetative Tolerant” value (vector configuration A) came out at 90%. In addition, under setting [1], the “% Completely Male-sterile” value was 10%. Also, the “% No Pollen” value under setting [2] is listed as 0%.
